Laboratory results as given in patent US20230365659A1 (EPSILON MOLECULAR ENGINEERING, published 2023).

B1: Bacillus subtilis-derived VHH-COVE5 (VHH)
VHH: EVQLVESGGGLVQAGGSLRLSCTASDQIFDNYNMAWFRQSPGKEREFVAALSWGDSNTGYADSVKGRFTISRDNAKNTVYLQMNSLKPEDTAVYYCYAVTWLRGDYWGQGTQVTVSS
B2: Bacillus subtilis-derived VHH-COVE3 (VHH)
VHH: AEVQLVESGGGFVQAGGSLRLSCRVSAPTFMTYTMAWFRQAPGNEREFVAALSKNFVTTSYADSVKGRFTISRDNAKNTVYLQMNSLKPEDTAVYYCNVAWSDYEYLEVWGQGTLVTVSSGGGSHHHHHH
B3: Bacillus subtilis-derived VHH-COVE7 (VHH)
VHH: EVQLVESGGGLVQAGDSLRLSCTASGRTFSSCAMGWFRQAPGKEREFVAAISRGGGSTSYADSVKGRFTISKDRARNTAYLEMNSLKPEDTAIYYCYAVFPSGGDYWGQGTQVTVSS
B4: Bacillus subtilis-derived VHH-COVE9 (VHH)
VHH: EVQLVESGGGLVQPGGSLRLSCAASGTIFSTNAMSWYRQAPGKQRELVAAITSGGNTNYADSVKGRFTISRDNAKNTVYLQMNSLKPEDTAVYYCNAPGVVTGSYDVRNYWGQGTQVTVSS
B5: Bacillus subtilis-derived VHH-COVE2 (VHH)
VHH: AEVQLVESGGGLVQAGDSLRLSCAATRRTSSTYAMGWFRQAPGKGLEWVAAISWDGGRTYYAESVKGRFTISRDNAKNTVYLQMNSLKPEDTAVYYCYSFGGSDFLMDYWGQGTQVTVSSGGGSHHHHHH
B6: Bacillus subtilis-derived VHH-COVE8 (VHH)
VHH: EVQLVESGGGLVQPGGSLTLSCAASGQTFSSYNMAWFRQSPGKEREFVATISWGGGSTGYADSVKGRFTISRDHAKNTVYLQMKDLKPEDTGAYYCYLVGLFGIQASDYWGQGTQVTVSS
B7: Bacillus subtilis-derived VHH-COVE1 (VHH)
VHH: AEVQLVESGGGLVQPGGSLRLSCAASGFAFSSYPMYWVRQAPGKGLEWISFIDGEGTSTSYADSVKGRFTISRDNAKNTVYLQMNSLKPEDTAVYYCNALLRRYNYGFTFDNYWGQGTQVTVSSGGGSHHHHHH
B8: Bacillus subtilis-derived VHH-COVE4 (VHH)
VHH: AEVQLVESGGDVVQPGGSLRLSCAASGFTFTTYAMTWVRQAPGEGLEAVSTISGADGSTYYADSVKGRFTISRDNANNTVYLQMNSLKPEDTAVYYCAATPWYSASHTYWGQGTQVTVSSGGGSHHHHHH
B9: Bacillus subtilis-derived VHH-COVE6 (VHH)
VHH: EVQLVESGGGLVQAGGSLRLSCTASGRTWNIASMTWFRQAPGGKERTFVATIKWSDLATYYTDSVKGRFTISRGNSKNTVYLQMNSLKPEDTGVYFCYAITTGSPLLGGGMDFWGKGTLVTVSS
B10: VHH-COVE9 (on beads in Example 26, production host not stated) (VHH)
VHH: B4 VHH

Biological target: T1, SARS-CoV2 spike RBD variant strain (SPD-C52Hp, Acro Biosystems, K417N, E484K, N501Y) (SARS-CoV-2, UniProt P0DTC2 319-537)
T1 construct: domain: RBD
Assay: BLI (Octet), biotinylated RBD on SA sensor, VHH as analyte, 1:1 fit

**Q.** Which results are given for B1?
**A.** Kd: 306 nM; koff: 0.0625 s⁻¹; kon: 204000 M⁻¹ s⁻¹

**Q.** Which results are given for B2?
**A.** Kd: 265 nM; koff: 0.0106 s⁻¹; kon: 40000 M⁻¹ s⁻¹

**Q.** What does the source list for B3?
**A.** Kd: 93.7 nM; koff: 0.00398 s⁻¹; kon: 42400 M⁻¹ s⁻¹

**Q.** B4 was tested. Which Kd did it give?
**A.** 10.9 nM

**Q.** What about the koff of the same binder?
**A.** 0.00159 s⁻¹

**Q.** And the kon?
**A.** 146000 M⁻¹ s⁻¹

**Q.** What does the source list for B5?
**A.** Kd: 90.7 nM; koff: 0.00529 s⁻¹; kon: 58400 M⁻¹ s⁻¹

**Q.** Which results are given for B6?
**A.** Kd: 239 nM; koff: 0.0191 s⁻¹; kon: 79900 M⁻¹ s⁻¹

Biological target: T2, SARS-CoV2 spike RBD variant strain (SRD-C52H3, Acro Biosystems, E484K) (SARS-CoV-2, UniProt P0DTC2 319-537)
T2 construct: domain: RBD
Assay: as above

**Q.** For B1, which Kd is on record?
**A.** 626 nM

**Q.** And the koff?
**A.** 0.0246 s⁻¹

**Q.** What about the kon of the same binder?
**A.** 39200 M⁻¹ s⁻¹

**Q.** What does the source list for B3?
**A.** Kd: 80.2 nM; koff: 0.00707 s⁻¹; kon: 88100 M⁻¹ s⁻¹

**Q.** B4 was tested. Which Kd did it give?
**A.** 9.9 nM

**Q.** What about the koff of the same binder?
**A.** 0.00307 s⁻¹

**Q.** What about the kon of the same binder?
**A.** 310000 M⁻¹ s⁻¹

**Q.** What does the source list for B5?
**A.** Kd: 34.4 nM; koff: 0.00365 s⁻¹; kon: 106000 M⁻¹ s⁻¹

**Q.** For B6, which Kd is on record?
**A.** 211 nM

**Q.** What about the koff of the same binder?
**A.** 0.0147 s⁻¹

**Q.** And the kon?
**A.** 69700 M⁻¹ s⁻¹

Biological target: T3, SARS-CoV-2 spike RBD variant strain (SPD-C52Hn, Acro Biosystems, N501Y) (SARS-CoV-2, UniProt P0DTC2 319-537)
T3 construct: domain: RBD
Assay: as above

**Q.** For B1, which Kd is on record?
**A.** 11.6 nM

**Q.** And the koff?
**A.** 0.00106 s⁻¹

**Q.** And the kon?
**A.** 91100 M⁻¹ s⁻¹

**Q.** B3 was tested. Which Kd did it give?
**A.** 24 nM

**Q.** What about the koff of the same binder?
**A.** 0.00186 s⁻¹

**Q.** And the kon?
**A.** 73300 M⁻¹ s⁻¹

**Q.** Which results are given for B4?
**A.** Kd: 6.9 nM; koff: 0.00267 s⁻¹; kon: 386000 M⁻¹ s⁻¹

**Q.** B5 was tested. Which Kd did it give?
**A.** 4.01 nM

**Q.** What about the koff of the same binder?
**A.** 0.000438 s⁻¹

**Q.** What about the kon of the same binder?
**A.** 109000 M⁻¹ s⁻¹

**Q.** For B6, which Kd is on record?
**A.** 28.8 nM

**Q.** What about the koff of the same binder?
**A.** 0.00159 s⁻¹

**Q.** What about the kon of the same binder?
**A.** 55300 M⁻¹ s⁻¹

Biological target: T4, SARS-CoV2 spike RBD variant (SRD-C52H2, Acro Biosystems, N440K) (SARS-CoV-2, UniProt P0DTC2 319-537)
T4 construct: domain: RBD
Assay: as above

**Q.** Which results are given for B1?
**A.** Kd: 42.4 nM; koff: 0.00178 s⁻¹; kon: 42100 M⁻¹ s⁻¹

**Q.** What does the source list for B2?
**A.** Kd: 15.4 nM; koff: 0.000448 s⁻¹; kon: 29200 M⁻¹ s⁻¹

**Q.** Which results are given for B3?
**A.** Kd: 24.2 nM; koff: 0.00113 s⁻¹; kon: 46600 M⁻¹ s⁻¹

**Q.** What does the source list for B4?
**A.** Kd: 12.5 nM; koff: 0.00258 s⁻¹; kon: 206000 M⁻¹ s⁻¹

**Q.** Which Kd does the source give for B5 here?
**A.** 2.96 nM

**Q.** What about the koff of the same binder?
**A.** 0.000491 s⁻¹

**Q.** What about the kon of the same binder?
**A.** 166000 M⁻¹ s⁻¹

**Q.** Which results are given for B6?
**A.** Kd: < 0.001 nM; koff: < 1e-07 s⁻¹; kon: 74500 M⁻¹ s⁻¹

Biological target: T5, SARS-CoV-2 full-length Spike Recombinant Antigen B.1.617 Mutation (Bio-Serv) (SARS-CoV-2, UniProt P0DTC2 14-1273)
T5 construct: Bought
Assay: ELISA, VHH on nickel plate, spike in solution

**Q.** Does B1 bind?
**A.** no binding (tested: 500 ng/mL)

**Q.** Does B3 bind?
**A.** no binding (tested: 500 ng/mL)

**Q.** Does B4 bind?
**A.** no binding (tested: 500 ng/mL)

**Q.** Does B5 bind?
**A.** no binding (tested: 500 ng/mL)

**Q.** Does B6 bind?
**A.** no binding (tested: 500 ng/mL)

**Q.** Does B7 bind?
**A.** no binding (tested: 500 ng/mL)

**Q.** Does B8 bind?
**A.** no binding (tested: 500 ng/mL)

**Q.** Does B9 bind?
**A.** no binding (tested: 500 ng/mL)

Biological target: SARS-CoV-2 (2019-nCoV) spike S1-Fc recombinant protein (Sino Biological, Inc.) (SARS-CoV-2, UniProt P0DTC2 16-685)
Assay: not given

**Q.** For B2, which Kd is on record?
**A.** 0.924 nM

**Q.** And the koff?
**A.** 9.75e-05 s⁻¹

**Q.** And the kon?
**A.** 106000 M⁻¹ s⁻¹

**Q.** What does the source list for B5?
**A.** Kd: 1.2 nM; koff: 8.47e-05 s⁻¹; kon: 70700 M⁻¹ s⁻¹

Biological target: T6, SARS-CoV-2 (2019-nCoV) spike RBD (L452Q, F490S) protein (His Tag) (Sino Biological, Inc.) (SARS-CoV-2, UniProt P0DTC2 319-541)
T6 construct: domain: RBD
Assay: pull-down with VHH-immobilized beads, SDS-PAGE of the eluate

**Q.** Does B10 bind?
**A.** no binding (tested: 12.5 µg/mL)

Biological target: SARS-CoV-2 full-length Spike Recombinant Antigen B.1.351 Mutation (Bio-Serv) (SARS-CoV-2, UniProt P0DTC2 14-1273)
Assay: ELISA, VHH on nickel plate, spike in solution (0-500 ng/mL)

**Q.** For B1, which “absorbance (450 nm)” value is on record?
**A.** 0.97

**Q.** With B2 as the binder, how does the “absorbance (450 nm)” value read?
**A.** 0.97

**Q.** Which “absorbance (450 nm)” value does the source give for B3 here?
**A.** 0.97

**Q.** Which “absorbance (450 nm)” value does the source give for B4 here?
**A.** 0.97

**Q.** B5 was tested. Which “absorbance (450 nm)” value did it give?
**A.** 0.97

**Q.** B6 was tested. Which “absorbance (450 nm)” value did it give?
**A.** 0.97

Biological target: SARS-CoV-2 full-length Spike Recombinant Antigen B.1.1.7 Mutation (Bio-Serv) (SARS-CoV-2, UniProt P0DTC2 14-1273)
Assay: as above

**Q.** How did the “absorbance (450 nm)” value turn out when B1 was run?
**A.** 0.97

**Q.** For B2, which “absorbance (450 nm)” value is on record?
**A.** 0.97

**Q.** For B3, which “absorbance (450 nm)” value is on record?
**A.** 0.97

**Q.** With B4 as the binder, how does the “absorbance (450 nm)” value read?
**A.** 0.97

**Q.** B5 was tested. Which “absorbance (450 nm)” value did it give?
**A.** 0.97

**Q.** Which “absorbance (450 nm)” value does the source give for B6 here?
**A.** 0.97

**Q.** Does B7 bind?
**A.** binds

**Q.** Does B8 bind?
**A.** binds

**Q.** Does B9 bind?
**A.** binds

Biological target: SARS-CoV-2 full-length Spike Recombinant Antigen P.1 Mutation (Bio-Serv) (SARS-CoV-2, UniProt P0DTC2 14-1273)
Assay: as above

**Q.** With B1 as the binder, how does the “absorbance (450 nm)” value read?
**A.** 0.97

**Q.** With B2 as the binder, how does the “absorbance (450 nm)” value read?
**A.** 0.97

**Q.** How did the “absorbance (450 nm)” value turn out when B3 was run?
**A.** 0.97

**Q.** With B4 as the binder, how does the “absorbance (450 nm)” value read?
**A.** 0.97

**Q.** With B5 as the binder, how does the “absorbance (450 nm)” value read?
**A.** 0.97

**Q.** With B6 as the binder, how does the “absorbance (450 nm)” value read?
**A.** 0.97
